Source: US20090004190A1, “Rage Fusion Proteins And Methods Of Use” (priority 2006, published 2009)
Values joined by “and” are separate entries in the source; they are usually repeats but may differ in a detail not shown here. Equal entries are not always repeated.

What was measured:
S100b (S100) = biological target: T1, S100b (S100) (Homo sapiens, UniProt P04271); assay: In vitro ligand binding (ELISA) to immobilized S100b; conditions: ligand 5 micrograms per well; FIG. 7
T1 sequence (P04271 1-92): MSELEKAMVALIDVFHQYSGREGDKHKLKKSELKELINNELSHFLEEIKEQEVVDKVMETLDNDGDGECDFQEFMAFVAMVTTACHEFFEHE
Protocol: (§1) For example, the RAGE fusion protein may be used in a binding assay to identify potential RAGE ligands. In one example embodiment of such a binding assay, a known RAGE ligand may coated onto a solid substrate (e.g., Maxisorb plates) at a concentration of about 5 micrograms per well, where each well contains a total volume of about 100 microliters (μL). The plates may be incubated at 4° C. overnight to allow the ligand to absorb. Alternatively, shorter incubation periods at higher temperature (e.g., room temperature) may be used. […] The RAGE fusion protein bound to the immobilized ligand may be detected in a variety of ways. […] The bound complex may be detected by adding the alkaline phosphatase substrate, para-nitrophenylphosphate (PNPP), and measuring conversion of PNPP to para-nitrophenol (PNP) as an increase in absorbance at 405 nm. […] In the absence of ligand (i.e., coating with only BSA) there was no increase in absorbance. […] Binding was detected by the addition of an immunodetection complex containing a monoclonal mouse anti-human IgG1 diluted 1:11,000 to a final assay concentration (FAC) of 21 ng/100 μL, a biotinylated goat anti-mouse IgG diluted 1:500, to a FAC of […], and an avidin-linked alkaline phosphatase. […]

amphoterin (Ampho) = biological target: T2, amphoterin (Ampho) (Homo sapiens, UniProt P09429); assay: In vitro ligand binding (ELISA) to immobilized amphoterin; conditions: ligand 5 micrograms per well; FIG. 7
T2 sequence (P09429 1-215): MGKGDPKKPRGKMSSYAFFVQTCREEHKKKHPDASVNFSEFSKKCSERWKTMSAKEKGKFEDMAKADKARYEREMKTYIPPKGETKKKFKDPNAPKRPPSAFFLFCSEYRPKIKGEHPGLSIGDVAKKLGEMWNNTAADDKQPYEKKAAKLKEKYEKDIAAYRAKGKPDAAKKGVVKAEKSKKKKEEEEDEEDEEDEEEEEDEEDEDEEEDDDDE
Protocol: as §1

[1] = tested on: recurrent diabetes in NOD/LtJ mice with syngeneic islet transplants; assay: Syngeneic islet transplantation in diabetic NOD mice; format: in vivo, mouse; conditions: 300 ug LD + 100 ug qod ip
Excerpt: Spontaneous autoimmune non-obese diabetic mice (NOD/LtJ) (12-25 weeks old) served as recipients for islet cells, while young pre-diabetic NOD/LtJ mice (6-7 weeks old) served as donors in syngeneic islet transplantation. Islets for transplantation were isolated as described above in Section A (Allogeneic Islet Transplantation).
Diabetic NOD/LtJ mice received islet grafts within 2 days of the diagnosis of diabetes. 500-600 freshly isolated islets (approximately 550 islet equivalents) from donor mice were picked up with an infusion set and transplanted into the subcapular space of the right kidney.
Test compounds were administered as soon as the islets were transplanted and continued for approximately 8 weeks.
Islet graft function was monitored by serial blood glucose measurements daily for the first 2 weeks after islet transplantation, followed by every other day thereafter. Reversal of diabetes was defined as blood glucose less than 200 mg/dl on two consecutive measurements. Percentage graft loss was determined when blood glucose exceeded 250 mg/dl on two consecutive measurements.

[2] = biological target: T3, amyloid-beta (Abeta) (Amyloid Beta (1-40)) (Homo sapiens, UniProt P05067); assay: In vitro ligand binding (ELISA) to immobilized amyloid-beta; conditions: ligand 5 micrograms per well; FIG. 7
T3 construct: Amyloid Beta (1-40) from Biosource; purchased Biosource
T3 sequence (P05067 672-711): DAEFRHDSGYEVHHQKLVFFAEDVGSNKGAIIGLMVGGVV
Protocol: as §1

[3] = tested on: transgenic mice expressing human Swedish mutant APP; assay: Mouse model of AD (APP transgenic mice): amyloid deposition and Morris water maze; format: in vivo; conditions: treated for 3 months, vs vehicle and human IgG1
Protocol: Experiments were performed to evaluate whether TTP-4000 could affect amyloid formation and cognitive dysfunction in a mouse model of AD. The experiments utilized transgenic mice expressing the human Swedish mutant amyloid precursor protein (APP) under the control of the PDGF-B chain promoter. Over time, these mice generate high levels of the RAGE ligand, amyloid beta (Aβ).
The APP mice (male) used in this experiment were designed by microinjection of the human APP gene (with the Swedish and London mutations) into mouse eggs under the control of the platelet-derived growth factor B (PDGF-B) chain gene promoter. The mice were generated on a C57BL/6 background and were developed by Molecular Therapeutics Inc. Animals were fed ad libitum and maintained by brother sister mating. The mice generated from this construct develop amyloid deposits starting at 6 months of age. Animals were aged for 6 months and then maintained for 90 days and sacrificed for amyloid quantification.
APP transgenic mice were administered vehicle or TTP4000 every other day [qod (i.p.)] for 90 days starting at 6 months of age. At the end of the experiment, animals were sacrificed and examined for Aβ plaque burden in the brain (i.e., plaque number). A 6-month control APP group was used to determine the baseline of amyloid deposits. In addition, at the end of the study, the animals were subjected to behavioral (Morris water maze) analysis. The investigators were blinded to the study compounds. Samples were given to the mice at 0.25 ml/mouse/every other day.
For histological examination, the animals were anesthetized with an intraperitoneal injection (IP) of sodium pentobarbital (50 mg/kg). The animals were transcardially perfused with 4° C., phosphate-buffered saline (PBS) followed by 4% paraformaldehyde. The brains were removed and placed in 4% paraformaldehyde over night. The brains were processed to paraffin and embedded. Ten serial 30-μm thick sections through the brain were obtained. Sections were subjected to primary antibody overnight at 4° C. (Aβ peptide antibody) in order to detect the amyloid deposits in the brain of the transgenic animals (Guo et al., J. Neurosci., 22:5900-5909 (2002)). Sections were washed in Tris-buffered saline (TBS) and secondary antibody was added and incubated for 1 hour at room temperature. After washing, the sections were incubated as instructed in the Vector ABC Elite kit (Vector Laboratories) and stained with […] (DAB). The reactions were stopped in water and cover-slipped after treatment with xylene. The amyloid area in each section was determined with a computer-assisted image analysis system, consisting of a Power Macintosh computer equipped with a Quick Capture frame grabber card, Hitachi CCD camera mounted on an Olympus microscope and camera stand. NIH Image Analysis Software, v. 1.55 was used. The images were captured and the total area of amyloid was determined over the ten sections. A single operator blinded to treatment status performed all measurements. Summing the amyloid volumes of the sections and dividing by the total number of sections was done to calculate the amyloid volume.
For quantitative analysis, an enzyme-linked immunosorbent assay (ELISA) was used to measure the levels of human total Aβ, Aβtotal and Aβ1-42 in the brains of APP transgenic mice (Biosource International, Camarillo, Calif.). Aβtotal and Aβ1-42 were extracted from mouse brains by guanidine hydrochloride and quantified as described by the manufacturer. […]

Molecule | binding to immobilized S100b (absorbance at 405 nm) (S100b (S100)) | binding to immobilized amphoterin (absorbance at 405 nm) (amphoterin (Ampho)) | day of graft loss, Mean [1] | day of graft loss, each animal ([1]; blood glucose exceeded 250 mg/dl) | binding to immobilized amyloid-beta (absorbance at 405 nm) [2] | Aβ plaques in the brain ([3]; FIG. 14A) | cognitive dysfunction (Morris water maze) ([3]; FIG. 14B)
TTP-3000: three domain RAGE fusion protein: human RAGE V domain and interdomain linker (to residue 136) fused to CH2 and CH3 domains of human IgG1 (protein) QNITARIGEPLVLKCKGAPKKPPQRLEWKLNTGRTEAWKVLSPQGGGPWDSVARVLPNGSLFLPAVGIQDEGIFRCQAMNRNGKETKSNYRVRVYQIPGKPEIVDSASELTAGPSVFLFPPKPKDTLMISRTPEVTCVVVDVSHEDPEVKFNWYVDGVEVHNAKTKPREEQYNSTYRVVSVLTVLHQDWLNGKEYKCKVSNKALPAPIEKTISKAKGQPREPQVYTLPPSRDELTKNQVSLTCLVKGFYPSDIAVEWESNGQPENNYKTTPPVLDSDGSFFLYSKLTVDKSRWQQGNVFSCSVMHEALHNHYTQKSLSLSPGK | specifically interact | specifically interact | 38.43 days | 46 days and 42 days and 41 days and 34 days and 32 days and 30 days and 44 days | specifically interact |  | 
mouse sRAGE: mouse soluble RAGE used as comparator in the AD mouse model (protein, UniProt Q62151 23-340, looked up, extracellular domain, mouse soluble RAGE used as comparator in the AD mouse model) extracellular domain: GQNITARIGEPLVLSCKGAPKKPPQQLEWKLNTGRTEAWKVLSPQGGPWDSVARILPNGSLLLPATGIVDEGTFRCRATNRRGKEVKSNYRVRVYQIPGKPEIVDPASELTASVPNKVGTCVSEGSYPAGTLSWHLDGKLLIPDGKETLVKEETRRHPETGLFTLRSELTVIPTQGGTHPTFSCSFSLGLPRRRPLNTAPIQLRVREPGPPEGIQLLVEPEGGIVAPGGTVTLTCAISAQPPPQVHWIKDGAPLPLAPSPVLLLPEVGHEDEGTYSCVATHPSHGPQESPPVSIRVTETGDEGPAEGSVGESGLGTLA |  |  |  |  |  | fewer Aβ plaques | less cognitive dysfunction
